In paper PMC9601868:

target: ZFP932 KRAB domain (5–76), AviTagged, monobiotinylated (murine); experiment: SPR; Biacore X100, Sensor Chip CAP; monobiotinylated KRAB domain immobilised; concentration series of Trim28 RBCC, 60 s injections; 10 mM TRIS/HCl pH 8.0, 300 mM NaCl, 0.1 mM TCEP, 0.005% tween 20; equilibrium analysis
Sequence (E9QAG8 5-76): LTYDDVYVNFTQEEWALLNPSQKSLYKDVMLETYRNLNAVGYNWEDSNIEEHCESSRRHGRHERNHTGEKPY

How did the Kd turn out when “Trim28 RBCC (58–418) K305E (from UniProt Q62318 58-418) (domain or fragment)” was run?
The Kd was 15.9 µM.

How did the Kd turn out when “Trim28 RBCC (58–418) L301S (from UniProt Q62318 58-418) (domain or fragment)” was run?
The Kd was 30.8 µM.

With “Trim28 RBCC (58–418) L301A (from UniProt Q62318 58-418) (domain or fragment)” as the substance, how does the Kd read?
The Kd was 6.5 µM.

target: ZFP932 KRAB domain (5–76), AviTagged, monobiotinylated (murine); experiment: SPR; Biacore X100, Sensor Chip CAP; monobiotinylated KRAB domain immobilised (~100 RU); 1 μM Trim28 RBCC injected 60 s, 600 s wash; 10 mM TRIS/HCl pH 8.0, 300 mM NaCl, 0.1 mM TCEP, 0.005% tween 20; kinetic analysis, two-state reaction model

Which Kd does the source give for “Trim28 RBCC (58–418) K290E (from UniProt Q62318 58-418) (domain or fragment)” here?
Its Kd is 132 nM.

For “Trim28 RBCC (58–418) M298S (from UniProt Q62318 58-418) (domain or fragment)”, which Kd is on record?
Its Kd is 671 nM.

How did the Kd turn out when “Trim28 RBCC (58–418) M304S (from UniProt Q62318 58-418) (domain or fragment)” was run?
The Kd was 20.3 nM.

With “Trim28 RBCC (58–418) K305A (from UniProt Q62318 58-418) (domain or fragment)” as the substance, how does the Kd read?
Its Kd is 31.1 nM.

With “Trim28 RBCC (58–418) I300S (from UniProt Q62318 58-418) (domain or fragment)” as the substance, how does the Kd read?
The Kd was 35.8 nM.

“Trim28 RBCC (58–418) V294S (from UniProt Q62318 58-418) (domain or fragment)” was tested. Which Kd did it give?
The Kd was 319 nM.

“Trim28 RBCC (58–418) I300A (from UniProt Q62318 58-418) (domain or fragment)” was tested. Which Kd did it give?
The Kd was 26.3 nM.

Which Kd does the source give for “Trim28 RBCC (58–418) R312E (from UniProt Q62318 58-418) (domain or fragment)” here?
The Kd was 212 nM.

For “Trim28 RBCC (58–418) K297A (from UniProt Q62318 58-418) (domain or fragment)”, which Kd is on record?
The Kd was 54.1 nM.

With “Trim28 RBCC (58–418), wild type (from UniProt Q62318 58-418) (domain or fragment)” as the substance, how does the Kd read?
The Kd was 14.6 nM.

With “Trim28 RBCC (58–418) K290A (from UniProt Q62318 58-418) (domain or fragment)” as the substance, how does the Kd read?
Its Kd is 37.3 nM.

How did the Kd turn out when “Trim28 RBCC (58–418) V294A (from UniProt Q62318 58-418) (domain or fragment)” was run?
The Kd was 113 nM.

How did the Kd turn out when “Trim28 RBCC (58–418) M304A (from UniProt Q62318 58-418) (domain or fragment)” was run?
Its Kd is 24.2 nM.

Which Kd does the source give for “Trim28 RBCC (58–418) M298A (from UniProt Q62318 58-418) (domain or fragment)” here?
The Kd was 324 nM.

For “Trim28 RBCC (58–418) R312A (from UniProt Q62318 58-418) (domain or fragment)”, which Kd is on record?
Its Kd is 27.8 nM.
